# “Also recorded” adds a separate entry of the source.
# Columns and labels:
# 293T cells = assay: Cell viability of 293T cell lines treated with Inhibitor of Telomerase I (crystal violet); format: cell-based, human; details: 24.2 vs pLNCX 293T cells, inhibitor 0-20 μM, 72 hours
# Protocol: FIG. 6.—Cell viability and telomerase activity of the 293T cell lines: pLNCX and 24.2 treated with the Inhibitor of telomerase I. A) Cell viability. After seeding the 293T cells: pLNCX and 24.2 in 24-well plates, they were incubated with concentrations between 0-20 μM of the Inhibitor of Telomerase I. The cell viability was measured by means of the crystal violet technique after 72 hours of exposure to the drug. The data represent the mean of two experiments performed in quadruplicate. B) Telomerase activity at different doses of the Inhibitor of Telomerase I. Telomerase activity of the 293T cells: 24.2 and pLNCX in the presence of different concentrations of the inhibitor of telomerase I (5-7 μM) for 3 days. The cells were seeded in 60-mm plates and subsequently treated at the specified concentrations and times.
# The effect of GSE 24.2 in response to the inhibitor of telomerase I was studied. To this end, a viability curve was performed wherein the pLNCX and 24.2 cell lines were treated with increasing concentrations of the inhibitor of telomerase I (0-20 μM) for 72 hours. […]
# Growth curves. […] The number of cells was determined by estimating the absorbance at 595 nm. […]
# hTERT promoter = assay: hTERT-luc reporter (luciferase) assay in 293T cells; format: cell-based, human
# Protocol: FIG. 8.—Activity of the hTERT promoter in the 293T cell lines: pLNCX and 24.2 and in 293T cells transiently transfected with the pLNCX-24.2 construct and the pLNCX empty plasmid. A) Both the pLNCX and the 24.2 cells were transiently transfected with 0.25 μg of the hTERT-luc reporter vector. The cells were seeded in 60-mm plates. After 24 hours of transfection, the cells were lysed and the luciferase activity of 10 μg of total protein was quantified. As a transfection control, the cells were co-transfected with a reporter vector, CMV-Renilla. B) The 293T cells were transfected with the pLNCX vector and the 24.2 plasmid (5 μg), and both were co-transfected with 0.25 μg of the hTERT-luc reporter vector. After seeding the cells as in A, they were transfected with pLNCX and 24.2, and co-transfected with the hTERT-luc reporter vector; subsequently, they were treated as in A. As a transfection control, the CMV-Renilla reporter vector was used. The data correspond to the ratio of relative units of luciferase with respect to non-transfected cells. Each point represents the mean±the standard deviation obtained from 3 independent experiments. C) The 293T cells were transfected with the different GSE 24.4, DSK, TRUB I, TRUB II constructs and the pLNCX empty plasmid (5 μg), and co-transfected with 0.25 μg of the hTERT-luc reporter vector. The cells were seeded in 60-mm plates; after 24 hours of transfection, the cells were lysed and the luciferase activity of 10 μg of total protein was quantified. As a transfection control, the cells were co-transfected with a CMV-Renilla reporter vector. The data correspond to the ratio of relative units of luciferase with respect to non-transfected cells. Each point represents the mean±the standard deviation obtained from 3 independent experiments.
# FIG. 9.—Activity of the hTERT promoter following treatment with cisplatin. A) Both the pLNCX cell line and the 24.2 cell line were transiently transfected with 0.25 μg of the hTERTIuc reporter vector. After 24 hours of transfection, they were treated with 3 μg/ml of cisplatin for 8 hours. The cells were seeded in 60-mm plates; after 24 hours of transfection and following treatment with cDDP, the cells were lysed and the luciferase activity of 10 μg of total protein was quantified. As a transfection control, the cells were co-transfected with a CMV-Renilla reporter vector. B) 293T cells which, after being transiently transfected with pLNCX and 24.2, were co-transfected with 0.25 μg of the hTERT-luc reporter vector and treated as in A. After seeding the cells as in A, they were transfected with pLNCX and 24.2, and co-transfected with the hTERT-luc reporter vector; subsequently, they were treated as in A. As a transfection control, the CMV-Renilla reporter vector was used. The data correspond to the ratio of relative units of luciferase with respect to non-transfected cells. Each point represents the mean±the standard deviation obtained from 3 independent experiments.
# A) The 293T cells were co-transfected with different constructs (10 μg/DNA per million cells) and the hTERT-luc reporter (1 μg per million cells). The specified cell lines were co-transfected with the hTERT-luc reporter and different quantities of the Mad/myc expression vector. (B) The specified cell lines were co-transfected with the HIV-luc reporter and with different quantities of the Mad/myc expression vector. After 24 h of transfection, the cells were stimulated with 50 ng/ml of TNF-α for 6 hours and the luciferase activity was analysed as described above. CMV-Renilla (0.1 μg/ml per million cells) was used as a control for the transfection efficiency. The data represent the mean of two experiments performed in quadruplicate.
# The pseudouridine synthase TRUB domain of dyskerin comprises two structural subdomains: the Trub I and II motifs (Zucchini et al., 2003). These two domains are critical to maintain the global protein structure of dyskerin. […]
molecule,measurement,setting,value
"GSE 24.2: 165-pb cDNA fragment (nucleotides 268 to 433) of human dyskerin, SEQ ID NO1, encoding peptide SEQ ID NO2, expressed from pLNCX plasmid (nucleic acid, listed as Homo sapiens, expressed from pLNCX plasmid; CDS (1)..(165) Sequence GSE 24.2) DNA: GGTTTCATTAATCTTGACAAGCCCTCTAACCCCTCTTCCCATGAGGTGGTAGCCTGGATTCGACGGATACTTCGGGTGGAGAAGACAGGGCACAGTGGTACTCTGGATCCCAAGGTGACTGGTTGTTTAATCGTGTGCATAGAACGAGCCACTCGCTTGGTGAAG",cell viability in response to Inhibitor of Telomerase I,293T cells,more resistant to the inhibitor of telomerase I
same,cell viability in response to Inhibitor of Telomerase I,293T cells; listed as 24.2,increases viability
same,"activity of the hTERT promoter, transient expression","hTERT promoter; 293T cells transiently transfected with construct vs empty vector, hTERT-luc, 24 hours",increases the activity of the hTERT promoter
same,"hTERT promoter activity following cisplatin, transient expression","hTERT promoter; 293T transiently expressing GSE 24.2 vs pLNCX, 3 μg/ml cisplatin 8 hours",greater than the baseline activity
same,"activity of the hTERT promoter, stable expression","hTERT promoter; pLNCX 24.2 cell line vs pLNCX, hTERT-luc, 24 hours",the activity of the hTERT promoter is greater; also recorded: increased the baseline activity of the telomerase promoter
same,"induction of hTERT promoter activity following cisplatin, relative to pLNCX cells","hTERT promoter; stable pLNCX 24.2 cells, 3 μg/ml cisplatin for 8 hours",4 times

# Reference: patent publication US9587002B2, “Sequence of nucleotides and peptides GSE 24.2 of dyskerin, which can induce telomerase activity, method for obtaining same, therapeutic compositions and applications thereof” (CONSEJO SUPERIOR DE INVESTIGACIONES CIENTIFICAS, priority 2005, dated 2017)
